# In the supplement of paper PMC12042874:
# ± gives the uncertainty stated by the source.
# Test: amyloid nucleation score (Sup35N fusion, yeast selection) (log enrichment); library NNK3; higher = more nucleation; inactive = no reads after selection
# How it was run: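 DiMSum was used to calculate nucleation scores as log enrichment of output over input reads, centred on the mode score of non-aggregating sequences. Sequences with fewer than 100 input reads were not scored. Input and output came from Illumina sequencing of plasmid inserts in psi-negative yeast expressing peptides of 20 random codons fused to Sup35N, induced 24 hours with 100 μM copper sulfate and then grown 7 days at 30°C on medium lacking adenine and uracil.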
row,Substance,amyloid nucleation score
1,IKDIFACSMCFTTKSNAAHY,3 ± 0.053
2,MVMNYWSTCNYSWPEVVISG,inactive
3,SSLFLDCGFGV,inactive
4,FFSISFS,inactive
5,YCFICVDSIAL,2.27 ± 0.072
6,RFNFNFFRSRSHLSVFTQFG,inactive
7,FTHNHK,inactive
8,YRWQLRKKALFFFGKFSVHY,inactive
9,ITILT,inactive
10,SSHGSRGITVDT,inactive
11,SNFTTPLHE,inactive
12,HFHFLGCDSLGIVVGEWSDH,0.94 ± 0.18
13,SMYRYAKETT,inactive
14,LAASLSGIYCPSLAWRGLKE,inactive
15,EAVSDLNVGPAVRCGG,inactive
16,TDSNYNFNC,0.214 ± 0.34
17,KYTNTACLSRASIGNMIGQF,inactive
18,LGYMLNGGRMQKNATNKSGA,inactive
19,RTGTNS,inactive
20,INWFGVRYRYDSSNYFMYQL,0.986 ± 0.21
21,FGTNVPISNLIKEVLYIRYS,inactive
22,ERVKWDKRMHPVDHWHVTVS,inactive
23,LLIIGLKSAVGVW,inactive

row,Substance,amyloid nucleation score
1,GMLPTGRYDRAYSFWGNWRR,1.08 ± 0.18
2,CNYSVVFCCNFWDYYLKECA,2.5 ± 0.06
3,NRKNTKHLIFFYVFVT,inactive
4,AGLPLV,inactive
5,RSTVLIPWVDNTCTDQSSGW,0.25 ± 0.21
6,SRFDRVMQNDCCVYSCHIII,inactive
7,LNSIG,inactive
8,VVSDTKYVVVEWYTCGQSSD,inactive
9,FFSTLVYNRRIVCWFRSGR,-1.49 ± 2.5
10,CSPGTSCFGIKPRSSLSTTI,inactive
11,SMNKFKF,inactive
12,HVQYLLHKFLTLVQMF,inactive
13,PNCLMS,inactive
14,GFYVCPMGCNEYRVLICSDS,inactive
15,TCTSQMLVWYFFPFLINMSW,inactive
16,TAFTMGV,inactive
17,DLYCMPLAAVLFGGGC,inactive
18,IRLSQNWGSYVCSNTLNSER,inactive
19,IRSILW,inactive
20,DEYTSNVVSNFFEIRLWFFI,inactive
21,SPSEMIAFWFNSTFVTSASG,-0.46 ± 1.7
22,LGIQYLDETHCPKSTSKGFS,inactive
23,WVVEQVDLLSGMVIGLKNSR,inactive

row,Substance,amyloid nucleation score
1,MGISLMFESERVSVYEHGNL,inactive
2,LWNFYSDCNGVPQDESLVEG,inactive
3,GYFSLPIGGVVRTGVMLDE,inactive
4,LVEISTVERRALIFYRCIDL,-0.481 ± 1.4
5,SSDECYSNHCIWCVKQ,3.16 ± 0.061
6,PPRLTS,inactive
7,LYWKEIPGMDYKMAV,inactive
8,GVSEAMCVILFYFYWKWVFP,inactive
9,HTMAHWITKEAAFLI,inactive
10,TGYAFFHEAS,inactive
11,YSHWMVRAA,-0.145 ± 0.81
12,FWLLVFPGNMMSS,0.818 ± 0.14
13,LFSGSHWCRDNMWSSGAIDA,inactive
14,VQISVNSVNLLKRWFIRAGT,inactive
15,LTFGTCFGPYYGVYPNLFIM,inactive
16,PYFIPYCV,inactive
17,KVFNTL,inactive
18,NVRVGILQR,inactive
19,LTWLYDDDVSKFRTLLKFRS,inactive
20,RWMLSDGFIMKRRTSFFNDM,inactive
21,LDVIFSKTFMEIVTLVVSLD,inactive
22,VNTFNFWCI,2.7 ± 0.081
23,NCMTLCLIDIRYSFENFFSF,2.18 ± 0.071

row,Substance,amyloid nucleation score
1,QKAVIGM,inactive
2,KRVKWNCRGLDDSMLFFWVV,inactive
3,NLESTNTMSYIWYRADSKCG,inactive
4,PHRFYYYWYSWCFILSNSCQ,inactive
5,GSTTCLYTSIPCCAGVLS,0.449 ± 0.21
6,VRRSMATLFWCWDYTNLDCI,inactive
7,RTCSQTIDIGVRNWINEQIM,inactive
8,MMPNELFDPVRKDRSFVRWV,inactive
9,SVSLYLNLVSLVYCLVCP,1.26 ± 0.14
10,HRGLWTKATSLYYPFEMWMV,inactive
11,IPYSTHRINSILISLSWFCV,0.691 ± 0.2
12,VSSMYVVIHGV,inactive
13,SLEGTYGHLRQELTTSPNAH,0.907 ± 0.17
14,SSLNSMIIIRFHTSKGHVCK,1.32 ± 0.17
15,RTYYASWENDSMGAVSYCAS,inactive
16,MILSNISGSRLIGSSNHSAF,inactive
17,NFLKSG,inactive
18,KFLISFRRSY,2.07 ± 0.076
19,IYCFRGNHFDCLGAGNMLQV,inactive
20,YNMSDTVRYHMSQVADCYIV,inactive
21,CNVNTLIFGRESNSSEHKHW,1.83 ± 0.081
22,IEVKDSVGVRCFYTYSPTCQ,inactive
23,LNCVSQMRVDRDANYSCNFF,-0.142 ± 0.78

row,Substance,amyloid nucleation score
1,NLVGTMATRYCRAHQEAREW,inactive
2,AEYLMEQAGTMC,inactive
3,TMASYWPMERRRTASELPGV,inactive
4,WMVGVKRSW,inactive
5,VLLGAVYKQNLANQYYSNLY,inactive
6,RLCLFLDPIY,inactive
7,GFCKIAAMGFAYHDGAFDGF,inactive
8,QKVVFW,inactive
9,VPCTWDLFYIGRSMWWFLTM,inactive
10,SYCGSSASSASTLEIRYTLA,0.875 ± 0.12
11,LCFMRHSLRGWG,-0.415 ± 0.96
12,SLSPAGSGSFFGKGFWMMLA,inactive
13,KPLMWESSDNPEGWQLSLLG,-0.79 ± 1.4
14,GKIAVS,inactive
15,GSLMTRRDLRKSPILIYRDG,-0.819 ± 0.75
16,CNFDKTLRSHDDQLAVGITV,inactive
17,FRFASYRSYLIVMP,inactive
18,LCFRLDVSRMCTVSGNIGYC,1.57 ± 0.079
19,SCGGCLFPDHKCCTSYARWV,inactive
20,YADRRIFSVS,inactive
21,IAAPRGMTDSRVVMRCLHVN,inactive
22,GSHVTKVLTFYSNVWVHFTG,inactive
23,CVFPCMFLEFTMTDMKLYSS,inactive

row,Substance,amyloid nucleation score
1,VGVYITMVYVSIKENRVEGN,0.804 ± 0.17
2,WLVFKSVFVDRM,inactive
3,NCVCEWTAFLYIPSIWGFEH,1.78 ± 0.098
4,LYCTWNSYNSVYAI,0.66 ± 0.2
5,YFSWLSLHVFVSGFVRIVCR,inactive
6,MVVLAVGRVKLAVYGCRKHG,inactive
7,KYCGQLQFRCIELEGGIKRE,inactive
8,EGGCYSPKHG,0.741 ± 0.28
9,FILSVWLYTS,inactive
10,VTLLPVSVCINAFNLILGPF,3.08 ± 0.065
11,SNGAGC,inactive
12,NNIVNSLYFEMGYGVN,inactive
13,SNIMHQNVTCESFYCRSSLW,1.81 ± 0.067
14,FWKACTCI,inactive
15,NVPKPGTFFCDKCYYGCVWD,0.642 ± 0.48
16,RIGVTYWGICSLKLT,inactive
17,KLNFVGLVLRNVGSWEGHGC,inactive
18,RMIASAFFADCEKYVVNNLE,0.028 ± 0.43
19,SFRSGLLSGRKWGHPVSSQE,inactive
20,YFRVAFCTHGFIMARCAFSS,inactive
21,WYIVTNR,inactive
22,FFGWSSRVSSACAVPVEINS,inactive
23,MILLHVVCSVFPVRGFVVLA,inactive

row,Substance,amyloid nucleation score
1,IIPYCRS,inactive
2,NERREANGWSYRDLHGSGFE,inactive
3,EMMLWSFNREFMTFYTRSVD,inactive
4,PFFCYWVTMKKVIFDTGVFA,inactive
5,YLLKCYVMSDRSMSTCVQLE,inactive
6,VTRETADDATVSQFWLNPSE,inactive
7,DDCIIRAGWDLLQR,inactive
8,DSYCGLRDEWITRWLGCRWM,inactive
9,HSRRHCFLVSWE,inactive
10,NIRYVWCQKRLTCARSWNPV,inactive
11,LSKLTSSQAGKG,inactive
12,LNSKFMLASTLLAKW,inactive
13,IERSNFLQCPVRGLRNTARV,0.526 ± 0.26
14,WMLLLTV,inactive
15,IIYFRVISIGYSWGIVRDRF,inactive
16,CNGLFIGPML,inactive
17,PRCARYYSKLFFCFSDLFLS,0.233 ± 0.25
18,FGLEFWTYTSIRFWLEYKPH,0.972 ± 0.099
19,QGDRLENKTLQVLHEKARSR,inactive
20,GNIDCSTVFVSRNNCD,inactive
21,MPYDFPVVHNIDFFG,inactive
22,RVFRLCIRFSHA,0.391 ± 0.23
23,TDVSHGNLHGVSSWSGVPAD,inactive
